# Assay: soluble on expression in E. coli; label from the status in PepcDB or PDB records
row,Sequence,soluble on expression in E. coli
1,TDPDADRLGAAVRMPNGDYQVLTGNQLGSIMIHYILEAHQQAGTLPQNAAVLKSIVSSELATAIAEKCNTKMFNVLTGFKFIAEKIQQYEEDHSQTFMFGFEESYGYLVKPFVRDKDAIQALVLLAEVAAFYKKQGKTLYDGLQDIFEEFGYFEE,not soluble
2,MGSDKIHHHHHHMYRTAIEELHRWKAKRNKKPLIIRGARQVGKTWLMKEFGRVAFAKTVYISLDNNRRMKELFSADLDVERIVTGLELYSGQKIDPANTLLIFDEVQEVPTALTSLKYFNENAPQYQIISAGSLLGVALHQGTSFPVGKVEFLDLYPLSFTEFLNAMDKGRYVELLQKGDFDMIATFKQTYVDMLKYYYYVGGMPEVVQSFSETKDFGEVREIQQRILDAYEQDFSKHAPHDVVPRIRMLWNSIPAQLTKENKKFIYGLIKEGARAKEYEQSMLWLTDCGLVHKVHRVNAPSLPLKAYEDLKAFKLFLVDIGLLSCMVRLNQGTLLDGNELFKEFKGALTEQYVLQQLRTLKELEAYYWTNDRGSAEIDFVVDDGHKVIPIEVKAETNLKAKSLKMYQEKFRPELSIRASMADYRRENRLLNLPLYMVEMMGLLLKEAE,not soluble
3,SHPALTQLRALRYSKEIPALDPQLLDWLLLEDSMTKRFEQQGKTVSVTMIREGFVEQNEIPEELPLLPKESRYWLREILLSADGEPWLAARTVVPVSTLSGPELALQKLGKTPLGRYLFTSSTLTRDFIEIGRDAGLWGRRSRLRLSGKPLLLTELFLPASPLY,soluble
4,EVKDYMSQPVVLRENTTVYDAICTIFLEDVSTLFIINEDNDFVGVCSRKDLLRASMIGADIHTVPISVNMTRMPNVTYLEESELVIYAADRMIEKEIDSIPIVRKKDNQKYEVIGRISKTTIAKLLVALYKE,not soluble
5,MLPFANYYISSPSVSEKNAINNNVNKRRKKKRAMMVYGGGGGGDDLAVVKAAAWAWYLRKEGKPIMREFDVTRAQRIPRPSRYKIEATKNMILSENRVLAENRVSSTKSPLWYTNYQFRGDQETYYSRLLDTYETKNISKRLNIDDSSFSTSLSSVLKHNGDDHHNHNRNDDYGFDDHGLLKKRNGSDSNTTTRSKTNNDKSYNGGFMKKVSKRSLWKGMIVMGPGSTVCGRSDDVASQAGRRTVKVAVAAEALVRSAASGSGKTQSGHC,not soluble
6,MSLGEQTTISDSKGLFHKEFPYVIPPVYRKVLDEYLVELNLLSNQSNFKIDTIFSYGLIISFERFTVGYEPDSHISKILESLCNSCNIDIKAIKEYSNNIKKLINEKGIKEIINILTAEIKKSVGGIALSNQSGKDKYYSRLHAIGIYELISNINEDKKEGDDKEIISECVEALGFSKDRVEKDINQYKNSMEKIKEMMELIKLTVEETKRKAKLNEGHHHHHH,soluble
7,MEALEEYTPTLLGEVAATLRGENELWLGLALISGKFNDLEPEQLAAAASALITETPRSDAWTDFKPSPVVLAALRPSNDLFGLLFCLKHPQPPLALWQAMTVADHLQRLNLWDLRRKLIKAQNQRAIAIPLWLEVDFMGLVEQWALGMEWENLCRQTSLDEGDLVRLFRRTVDLLWQIPQVPHLSPRLKRNARIAVQQMKRFPLLEHHHHHH,not soluble
8,SLKKIVESTTFPRTKQSITEDLKALGLKKGMTVLVHSSLSSIGWVNGGAVAVIQALIDVVTEEGTIVMPSQSVELSDPKEWGNPPVPEEWWDIIRESMPAYNSNYTPTTRGMGQIVELFRSYPEVKRSNHPNYSFVAWGKHKNKILNQHPLEFGLGEQSPLGKLYIRESYVLLLGADFDSSTCFHLAEYRIPYQKIINRGAPIIVEGKRVWKEYKELEFREELFQEVGQAFEAEHNMKVGKVGSANCRLFSLTEAVDFAEKWFINNDSKNIKK,soluble
9,MHIHILGICGTFMGGVAMLARQLGHKVTGSDANVYPPMSTMLEAQGIEIIEGFDPVQLEPKPDLVVIGNAMSRGNPCVEYVLNHNLRYTSGPQWLQDFLLHDRWVIAVSGTHGKTTTSSMIAWVLEHCGYQPGFLVGGVLGNFGISARLGESMFFVVEADEYDSAFFDKRSKFVHYHPRTLVMNNLEFDHADIFDNLEAIKRQFHHLVRTVPGNGRILAPKQDEALADVLQRGCWSETEFSGEQGEWQAEKITADGSQFHVLLKGERVGQVNWSLVGDHNVSNALMAIAAARHVGVAPELACEALGLFVNTKRRLELKGEINGVTVYDDFAHHPTAIELTLGGLRNKVGDKKIIAVLEPRSATMKLGVHKETLAASLHSADSVYLYQPSNIPWSVEEVAKQCQQPAQVSANMDEFVAMIAKEAQAGDQILVMSNGGFEGIHGKLLAALQQK,not soluble
10,MKTKVICLVRVSTQDQDYQRQISDLTKYSQARDFVIVDFISEKVSGTKRNEERNGIQELLKRARKKEFQKVIVQEISRLGRNPFQVQRVIEELAELSISVVVQNMNLETLDEGGNRNGFIDLMLSTAVHFSSIERSWIVNRIRSGQKNSKKKIGRPFNTFESKEAVLKKYAAVVRDLKSGISIRKVAKLNDLSTPTIQRVKKLMQEL,not soluble
11,MAKYEILFKQLRLAILRGEYAPNDRLPSENAIAIKHGVSRITSKRALNELAAADLVYRVRGGGTFVKPHKSTTQRQILLVLPFPETTSFGDYPSGIQGTLAGTTWQLKLMANERFIQLNLDELASQYAGIIYYPQNLATELPILMRLYAQKMPLVVLDKQPAALAVPSVTSDNVAGGKIACEHLQSRGHHRIAFLPETPFWQTFTGTVSDRFLGYFNHLKLATSDAALPLRWAQALQACTTAVQLKAYIQAQRITAIIAENDVVALRALQRIQELTSNSDTSIALVGFDNLPAAARNNPALTTVVQDFAAIGAKAVEALLDQINNPEHLFDDQIVVGVKLMVRSSTNQY,not soluble
12,MAVKINDLTLPKEKLENEYQVVQVSLWQKDGEALGWTYECVLPKLRFEKISVKVKSEAPVITKETLDEKGMAIVRFDNLMITPWGRVNGQFVSYGLTATAYKATLVPNK,not soluble
13,MAIRLPAEWEEQDGVLIAWPHPGSDWYPWLRLVEPVFAQIVREITRFETALVVAADGERTAALLEAVGARMERVAIVELPTNDTWARDFGPVTVERDGRPVLLDFGFNGWGLKFAADRDNLVTRRLRHLGIFGDIPAEMVGLVLEGGSIESDGRGTVLTTAECLLNPNRNPHLSRAEIEEALARYLGTERVLWLENGFLAGDDTDSHVDTLARLAPDDTIVYVRCDDATDEHYAALFMMEKELANLRTREGSPYRLIPLPWPRACFDHEGQRLPATYANFLVINGAVLVPVYDDPADEAALEAIGRAFPGREIVGIDCRPLIIQHGSLHCVTMQLPKGVLPCPNLEHHHHHH,soluble
14,MHLLPELASHHAVSIPELLVSRDERQARQHAWLKHHPVPLVSFTVVAPGPIKDSEVTRRIFNHRVTALRALATKQGWQIQEQAALVSASGPEGMLSIAAPARDLKLATIELEHSHPLGRLWDIDVLTPEGEILSRRDYSLRLAAACCASKAQPSARVEKPIN,not soluble
15,MKEENVGDFTLHYGVFEEVEPEELRNLADMLRQRTKKDVVFIASRKGDKINFVIGVSKEISDKVNAKEVIREVGKVLKGGGGGRADLAQGGGKAPDKFPEAVKLLKEILSG,soluble
16,MGSDKIHHHHHHMKISVSKNDLENALRYLQAFLDKKDASSIASHIHLEVIKEKLFLKASDSDIGLKSYIFTQSSDKEGVGTINGKKFLDIISCLKDSNIILETKDDSLAIKQNKSSFKLPMFDADEFPEFPVIDPKVSIEVNAPFLVDAFKKIAPVIEQTSHKRELAGILMQFDQKHQTLSVVGTDTKRLSYTQLEKISIHSTEEDISCILPKRALLEILKLFYENFSFKSDGMLAVIENEMHTFFTKLIDGNYPDYQKILPKEYISSFTLGKEEFKESIKLCSSLSSTIKLTLEKNNALFESLDSEHSETAKTSVEIEKGLDIEKAFHLGVNAKFFLEALNALGTTQFVLRCNEPSSPFLIQESLDEKQSHLNAKISTLMMPITL,not soluble
17,GPGSMAHSLTWKLLSPEQTHECLTAPDVPSIRSVLKKIDEACDGKLIGAAKYNEGKVMIVLDMLAHLILFCKSRSMSPEKVSTLVGIVIKIHEESMSGGYTRAKSYHLMRDLMIKHSVPRPPFSCGVFTVRDAQEIDEYMLRSYYRHYKMYFYAFVPRQVMNVRCLDVTHIHQVPPVGLPSLSTAVVESEWRTKVEEQRREAEEQAMQEGEIASDAYEEERMRNRLLADPHYSDGIREQLECIKKEVSSKAVGRLDEIEMRLQEIEKKVAESFARSDSKQGRRKK,soluble
18,MGSDKIHHHHHHMTVAQLLIPQMYSSKSTGEAVGRHPLNFYESPSWFTTELLRHVRLSGVVGEPCVGMGAIASLLSVWPYTKQMWTNDIDPHKSANYQMDATLSESWAKFPDCDWICTNPPYSEFAAPIIKNAYCKAHVGVAAFLLTSFLEPCDDRADFLQQHPPSLVLIMPRFCFRKDKRGTRWATDNVTISCFVWDKRATGQQIIVRPKSAIAGFYKNPEQAISQERAEKIVRAIAKGEL,not soluble
19,MGSDKIHHHHHHMNIQQLRYVVAIANNGTFREAASKLFVSQPSLSVSIKDLEAELGFQIFNRTTSGTVLTSQGLVFYEKALEVVKSFDSFEKTFSQADLDQNEFSIASQHYDFLPPLITAFSQQYDGHRVFRIFESTTIQILDEVAQGNSEIGIIYLNVDNQKGLFQRMDKLGLEYVSLIPFTTHIYLSKTHPLANREALYLNDIQGLPAVRFTQERDEYLYYSENFVDTSECPRIYNVSDRATLNGILERTNAFATGSGFLDHRSVNGIKVIPLADHIDNQMIYVKRKDKNLSVAGATFVTILKDYFDKRRKALT,not soluble
20,MGHHHHHHSHMIKRSSECNPLLQEPIASAQFGATAGTECRKSVPCGWERVVKQRLFGKTAGRFDVYFISPQGLKFRSKSSLANYLHKNGETSLKPEDFDFTVLSKRGIKSRYKDCSMAALTSHLQNQSNNSNWNLRTRSKCKKDVFMP,soluble
21,MAHHHHHHMNPSLSDSKFEKAMSKLQLLEDSRTILHRMLQHAHFSFSNAQRQMDRTGLLLAWEAVPTAAGAVKPQYCIVREMKDGGNGGDAGVGAAAISDDNVDCAVWKLVNCGDSAGEDPAKWFAVAPSEALRECQQHFRGVVNACVKVIQAQEEAITAAATVPVT,not soluble
22,MSLKIGIIGASGKAGNEILKEAKKRGHEVTAIVRNASKVQEQDVAILEKDVFELTAEDIKPFDAVVNAFGAAPGQEHLHVEAGRALISILKDAKHTRLLVVGGAGSLFVDEAKTTRLMDTPEFPKEYLPTASNQGENLKDLQQTDSISWTFLSPAAFFDPAGKRTGSYQKGKDNVIVNAKGDSYISYADYAIAVLDELEHPEHKNERFTVVSEAEEGGSHHHHHH,soluble
23,MGSDKIHHHHHHMNSILINHKAKADISISCFGEVLWDCFPDGKRVGGAPLNVCVRLNALGIKGSMISAVGDDPLGHELVSFIDDRGVNRDCIAIDPVKSTSTVQVTLDKNGSASYDIVADTAWDNIALTEDIIEQVNRTDVLVFGSLIGRNDVSLNTLTALVKLASFSVFDVNLRAPHYQIDSVINLMKKADFIKLNDDELYEIAKAMGSPFHSLEQNLDFVAIQTNTDYLCVTKGSHGALLSIGGQKYYNSGYLVNVVDTVGAGDSFLGSLLYQLCSDSNPQYAIDFACAVGAMVAESHGATPMITLNEIQAFMHPV,not soluble
